Patent publication US20220153807A1 (published 2022)

How the values were obtained:
[1] = molecular target: T1, MAGE-A3 peptide on HLA-A*02:01 (human); experiment: as above, co-transfected with the inhibitory CAR C1761 (NY-ESO-1 scFv, LILRB1), 50 uM NY-ESO-1 peptide; reduced against CT139 alone; full-length, on cells
T1 peptide: FLWGPRALV

[2] = molecular target: T1, MAGE-A3 peptide on HLA-A*02:01; experiment: NFAT-luciferase Jurkat cells, CT139 alone; T2 cells with titrated MAGE-A3 peptide and 50 uM NY-ESO-1 peptide; full-length, on cells
[3] = molecular target: T1, MAGE-A3 peptide on HLA-A*02:01; experiment: as above, co-transfected with inhibitor construct C2106, 5 uM NY-ESO-1 peptide; full-length, on cells
[4] = molecular target: T1, MAGE-A3 peptide on HLA-A*02:01; experiment: as above, co-transfected with inhibitor construct C2107, 5 uM NY-ESO-1 peptide; full-length, on cells

B1: CT139, MAGE-A3 pep1 TCR (both alpha and beta chains) (TCR, V domains shown)
Valpha: AQSVDQPDAHVTLSEGASLELRCSYSYSAAPYLFWYVQYPGQSLQFLLKYITGDTVVKGTKGFEAEFRKSNSSFNLKKSPAHWSDSAKYFCALEGPDTGNYKYVFGAGTRLKVIA
Vbeta: DAGVTQTPRHEVAEKGQTIILKCEPVSGHNDLFWYRQTKIQGLELLSYFRSKSLMEDGGAFKDRFKAEMLNSSFSTLKIQPTEPRDSAVYLCASSFGTASAETLYFGSGTRLTVL
[1]
  EC50 of peptide: > 1000 nM
[2]
  EC50 of peptide: 20 nM
[3]
  EC50 of peptide: 40 nM
[4]
  EC50 of peptide: 100 nM
